Assay: yeast display, Sf9 membrane polyspecificity reagent, FACS + sequencing; frameworks hold sequencing errors
Summary of the method: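 Using colony PCR, genes from sorted yeast display clones were amplified, then sequenced on MiSeq at 2 × 250 and filtered by CDR length. The clones had been stained with 10% biotinylated, detergent-solubilized Sf9 membrane reagent for 1 hour at 4 °C and sorted by FACS into low and high (top ~1%) gates on anti-HA and streptavidin fluorescence. Polyreactivity labels come from the gate of origin.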

| Sequence | polyreactivity (PSR sort gate) |
| --- | --- |
| QVQLVESGGGLVQAGGSLRLSCAASGYTFQYNSMGWYRQAHGKERELVATISNRGTSTYYADSVKGRFTISRDNAKKTVYLQMNSLKPEDTAVYYCAKSRWSLYSSGVWSRRHFYYWGHGTQVTVSS | high polyreactivity |
| QVQLVESGGGLVQAGGSLRLSSAASGITFYINAMGWYRPAPGKERELVAALSWPRGSTYYADSVKGRFTISRDNAKNTVYLQMNSLKPEDTAVYYCAGVAYFELSGGGLEYGYDYWGQGTQVSVSS | high polyreactivity |
| QVQLVESGGGLVQAGGSLRLSCAASGSTFRVNARGWYRQAPGKERELVAAISFSAGGTYYADSVKGRFTISRDNAKNTVYLQMNSLKPEDTAVYYCAADFYYYDYWGQCTQVTVSS | low polyreactivity |
| QVQLVESGGGLVQAGGSLRLSCAASGRTFRWNAMGWYRQAPGKERELVASITVNGGSTSYADSVKGRFTISRDNAKNTVYLQMNSLKPEDTAVYYCNAYYTYWYPRYDYWGQGTQVTVSS | low polyreactivity |
| QVQLEESGGGLGQAGGSLRLSCAASGSTFTVNGKGWYRQPPGKERELVASITWSGGSTYYADSVKGRFTLSRDNAKYTVYLQMNSLKPEDTAVYYCAADEKLYITGYDYWGQGTQVTVSS | low polyreactivity |
| QVQLVESGRGLVQAGGSLRLSCAASGRIFTTDVMGWDRQAPGKERELFAAISARGSTYYADYVKWRFTISRDNAKNTVYLHMNSLKPEDTAVYYFAKKGWSSHERAWYIYDYWGQGTQVTVSS | low polyreactivity |
| QVQLVESGGGLVQAGGSLRLSCAASGSTFRWNAMGWYRQAPGKERELDAAINSGGSTNYADSVKGRFTISRDNAKNTVYLQMNSLKPEDTAVYYCATRYDVSYIKFDYWGQGTQVTVSS | high polyreactivity |
| QVQLVESGGGLVQAGGSLRLSCAASGRTFPYYAMGWYRQAPGKERELVAAISYSGGTTYYADSVKGRFTISRDNAKNTVYLQMNSLKPEDTAVYYCAAERAILSSDKQSLWRFDYWGQGTQVTVSS | low polyreactivity |
| QVQLVESGGGLVQAGGSLRLSCAASGITFVYYVMGWYRQAPGKERELVAGISSGGSTYYADSVKGRFTISRDNAKNTVYLQMNSLKPEDTAVYYCAAVSTPYYGHVKRYYYWGQGTQVTVSS | high polyreactivity |
| QVQLVESGGGLIQAVRSHRLSFAASGSTFRRYAMRWYRQEPGKEREISTSDGSTYYADSVKGRFTISRENAKNTVYLQMNSLKPEDTAVYYCAADGYRKLIEDITDDYCGQGTQVTVSS | low polyreactivity |
| QLQLVESGGGLVQAGGSLRLSCAASGFTFYRYAKGWYRQAPGKARELVAAISWSGGTTYFADSVKGRFTISRDNAKNTVYLQMNSLTPEDTAVEYCNARFIARSGYKVDYDYWGQGTQVTVSS | high polyreactivity |
| EVQLVESGGGLVQPGGSLRLSCAASGYIYRRYRMGWYRQAPGKGREFVAAISGGSSTNYADSVTGRFTISRDNSKNTVFLQMNSLRAEDTAVYYCAAYKIDSYPRVYWGQGTQVTVSS | low polyreactivity |
| QVQLVESGGGLDQAGGSLRLSCAASGSIFVYYAMGWYRHAPGKEMELVAAITSGTSTNYADSVKGRFTISRDNAQNTVYLQMNSLKPEDTAVYYCAADHYYTGTTYNYWGQGNQVTVSS | low polyreactivity |
| QVQLVESGGGLVQAGGSLRLSCAASGGTLYYYAMGWSRQAPGKERELVADITNSGSTNYADSVKGRFTISRDNAKNTVYLQMNSLKPEDTAVYYCAAYSWSWYHPEFDYWGQGTQVTVSS | high polyreactivity |
| QVQLVESGVGLVQARGSLRLSCAASGSIFKYYTRRWYRQAPGKERELVSGISYRGGSTYSADSVKGRFTISRDNAKNTVYLQMNSLKPEDTAVYYCYAFLLSGGDYWGQGSQVTVSS | high polyreactivity |
| QVQLVESGGGLVQAGGSLRLSCAASGRTLQGYAMGWYSQAPGKERELVAAISRGGGSTYADSVKGRFTISRDNAKNTVYLQMNSLKPEDTAVYYCAAVRGIYGGHYFRYDYWGQGTQVTVSS | high polyreactivity |
| QFHLVESGGGLVQAGGSLRLSCAASGSIFYPYDMGWYRQAPGKERELVATINWSSGRTNYADSVKGRFTISRDYAKNTVYLQMNSLKPEDSAVYYCNARFYYTLYYDYWGQGTQVTVSS | high polyreactivity |
| QGQLVESGGGLVQEGGILHLTCAASGRIFCYYDMGWSRQEPGKERELVAAISRSGGSTYYADSVKGRFTISRDNAKNTVYLQMNSLKPEDTAVYYCAAEYYGFSWAGYYYWGQGTQVTVSS | high polyreactivity |
| QVLLQESGGGLVQAGGSLRLSCAASGTISTDIRMGWYRLAPGKEREFVASIDGCSTTYYADSVKGRFTISRDNAKNTVFLQMNSLKPEDTAMYYCAAREATEFYLYYWGQGTQVTVSS | low polyreactivity |
| QVQLVESGGGLVQAGGSLRLSCAASGFIFYNYAMGWYRQAPGKERELVAAITGGGSTNYADSVKGRFTISRDNAKNTVYLQMNSLKPEDTAVYYCAAEEGPPWSRYDYWGQGTQVTVSS | low polyreactivity |
| QVQLVESGGGLVQAGGSLRLSCAASGFTFRRYAMGWYRQAPGKERELVAAISYSGGSTNYADSVKGRFTISRDNAKNTVYLQMNSLKPEDTAVYYCATTSRAWGRGYDYWGQGTQVTVSS | low polyreactivity |
| QVQLVESGGGSDQAGGSLRLSCAASGSTFQYNVMGWYRQAPRKERELVAAIRQSGSTTYYADSVKGRFTISRDNAKNTVYLQMNSLKPEDTAVYYCAKRYHNWANSRMDYWGQGTQVTVSS | low polyreactivity |

| Sequence | polyreactivity (PSR sort gate) |
| --- | --- |
| QVQLVESGGGLVQAGGSLRLSCAASRFIFQPYAMGWYRQAPGKERELVAAITSRGGRTYYADSVKGRFTISRDNAKNTVYLKMNSLKPEDSAVYYCNADIYASEYYYWGQGTQVTVSS | low polyreactivity |
| QVQLVESGGGLVQAGGSLRLSCAASGRIFVVYVMGWYRQAPGKEREFVAAITWGGGNTYYADSVKGRFTISRDNAKNTVYLQMNSLIPEDTAVYYCAAAPRKYVWMDYWGQGTQVTVSS | low polyreactivity |
| KVQLVESGGGLVQAGGSLRLSCAASGSIISPNAMGWYRQAPGKERELVAGITQSGGSTYYADSVKGRFTISRDNAKNTVYLQMNSLKPEDTAVYYCSVDFILGWYSYYYWGQGTQVTVSS | high polyreactivity |
| QVQLVESGGGLVQAGGSLRLSCAASGFTFSYYAMGWYRQAPGKERELVATITWDGGSTYYADSVKGRFTISRDNAKNTVYLQMNSLKPEDTAVYYCAAQYYRWQTKYDYWGQGTQVTVSS | high polyreactivity |
| QVQLVESGGGLVQAGGSLRLSCAASGFIYSRYAMGWYRQAPRKEMDFFAAISRNGGSTYYADSVKGRITISRDNAKNTVYLQMNSLKPDDTAVYYCIAPYFVTSTYANTLGFDYWGQGTQVTVSS | high polyreactivity |
| QVQLVESGGGIVQAGGSLRLSCAASGNTFYPYTMGWYRQAPGKERELVADITYIGGDTYYADSVKGRFTISRDNAKNTVYLQMHTLKPEDTAVYYCNAVEVDHDYFYYGQNEYWGQGTQVTVSS | low polyreactivity |
| QVQLVESGGGLVQAGGSLLLSCAASGYTFKSYVMGWYRQAPGKERELVAAITSIGGSTYYADSVKGRFTISRDNAKNNVYLQMNSLKPEDTALYYCAKYPGISGYNYWGQGTQVTVSS | high polyreactivity |
| QVQLVESGGGLVQAGGSLRLSCAASGFTFWLYAMGSYRQAPGKEREFVAAISTSGGYTYADSVKGRFTISRDNAKNTVYLQMNSLKPEDTAVYYCAVDGLPPKDALHLYYYWGQGTQVTVSS | low polyreactivity |
| QVQLVESGGGLVQAGGSLRLSCAASGRILYVYAMGRYRQAPGKERELVAAITSGGSTHYADSVKGRFTISRDNAKNTVYLQMNSLKPEDTAVYYCAAYTLRNRGGFNYWGQGTQVTVSS | high polyreactivity |
| QVKLKESVGGLVQAGGSLRLSCAASGSISATGNMGWYRQAPGEERELVAAINFGSNTYYADSVKGRFTISRDNAKNTVYLQKSGLKPEDTAVYYCAVDGWYVGPYYYWGQGTQVTVSS | high polyreactivity |
| QVQLVESGGGLVQAGGSLRLSCAASGFTFQYYAMGWYRQAPGKERELVAAITWSGTSTYYADSVKGRFTISRDNAKNTVYLQMNSLKPEDTAVYYCNKYSPYITYDYDYWGQGTQVTVSS | high polyreactivity |
| QVQLVESGGGLVQEGGSLRLSCAASGFIVSYYTMGWYRQAPGKERELVAAIRSSGGSTYADSVKGRFTISRDNAKNTVYLQMNSLKPEDTAVYYCAAVQTWRWVYARDYWGQGTQVTVSS | high polyreactivity |
| QVQLEESGGGLVQAGGSLRLSCASYGRIFPFYALGWYRQAPRKERELVARISRRGGSTYYADSVKGRFTISRDNAKNNVYLQMNSLKPEDTAVYYCASSQAVYDGWYAKFGYWGQGTQVTVSS | low polyreactivity |
| QVQLVESGGGLVQAGGSLRLSCAASGRTFPGNAMGWYRQAPGKERELVAGISYRGGSTYYADSVKGRFTISRDYGKNTVYLQMNSLKPEDTAVYYCARDYSRHKGDYWGQGTQVNVSS | low polyreactivity |
| QVQLVESGGGLVQAGGSLRLSCAASGIIFRYAMGWYRQSPGKERELVARITVGSTYYADSVKGRFTISRDNAKNTVYLQMNSLKPEDTAVYYCNKDSGEDDRWPYDYWGQGTQVTVSS | low polyreactivity |
| QVQLVESGGGLVQAGGSLRLSCAASGITFYINAMGWSRQAPRKERALLAGISSGGSTNYADSVKGRFTISRDNAKNTVYLQMNSLKPEDTAVYYCWVSRTYHLDYWGQGTQVTVSS | low polyreactivity |
| QVQLVESGGGLVQAGGSLRLSCAASGSTFSTNAMGWYRPAPGKERELVAAISRSGGSTYYADSVKGRFTHSRDNEKNTVYLHMNSLKPEDTAVYYCARVSGYRYDYWGQGTQVTVSS | high polyreactivity |
| QVQLVESGGGLVQAGGSLRLSCAASGIIFGDNGMGWYRQAPGKERELVAVITSGDGTNYADSVKGRFTISRDNANNTFYLQMNSLKPEDTAVYYCAADFRIVVYGWGGSHMDYWGKGTQVTVSS | low polyreactivity |
| QVQLVESGGGLVQAGGSLRLSCAASGRIFPHYAMGWFRQAPGKERELVAAISSGGRTNYADSVKGRFTISRDNAKNTVYLQMNSLKREDSAVYYCAAEAPFYVIGRRYRGYDYWGQGTQVTVSS | high polyreactivity |
| QVQLVESGGGLVQAGGSLRLSCAASGRIFKNYAMGWYRQAPGKERELVAAISRSGGRTYYADSVKGRFTISRDNAKNTVYLQMNSLKPEDTAVYYCAADVDYRYSKIYKWTYDYWGQGTQVTVSS | high polyreactivity |
| QVQLVESGGGLVQAGGSLRLSCAASGFIFWKNAMGWYRQAPGKERELVAAISWSGGRTYYADSVKGRFTISRDNAKNTVYLQMNSLKPEDTAVYYCNAAGRYKPGAPYDYWGQGTQVTVSS | low polyreactivity |

Source: the nanobody polyreactivity screen of Harvey et al. (2022)
